What was measured:
[1] = target: plasma-derived HBsAg particles (Biodesign) (hepatitis B virus); assay: SPR (Biacore), periplasmic extract over immobilised plasma-derived HBsAg particles, 1:1 dissociation model
[2] = target: T1, mouse P2X7 (mouse) (UniProt Q9Z1M0); assay: cell-based or functional assay
T1 sequence: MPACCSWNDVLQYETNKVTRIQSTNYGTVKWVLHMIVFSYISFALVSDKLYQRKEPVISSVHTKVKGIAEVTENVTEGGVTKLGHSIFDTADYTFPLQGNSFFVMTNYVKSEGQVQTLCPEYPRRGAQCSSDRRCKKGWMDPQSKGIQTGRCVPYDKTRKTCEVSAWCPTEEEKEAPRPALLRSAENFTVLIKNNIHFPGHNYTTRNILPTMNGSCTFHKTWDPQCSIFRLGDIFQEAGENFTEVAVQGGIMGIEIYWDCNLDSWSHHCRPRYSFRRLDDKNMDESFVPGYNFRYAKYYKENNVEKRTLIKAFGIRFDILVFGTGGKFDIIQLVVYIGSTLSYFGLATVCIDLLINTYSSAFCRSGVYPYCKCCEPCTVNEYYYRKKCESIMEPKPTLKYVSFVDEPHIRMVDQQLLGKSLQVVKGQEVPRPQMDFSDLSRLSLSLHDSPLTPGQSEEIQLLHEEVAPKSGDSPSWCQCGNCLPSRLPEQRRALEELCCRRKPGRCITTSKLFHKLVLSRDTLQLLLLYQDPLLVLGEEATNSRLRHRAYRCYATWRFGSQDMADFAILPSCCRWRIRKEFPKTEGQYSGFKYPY

B1: HBSAGPMP2E12 (VHH)
VHH: EVQLVESGGGLVQAGGSLRLSCAASGRSISEYAMGWFRQAPGQEREFVASISTSGGSTTYADSVKGRFIISRDNAKNTVYLQMNSLKPEDTAVYYCARYNGWMYYAGTMGVHFGQGTQVTVSS
[1]
  koff: 0.0013 s⁻¹

B2: 8G11-35GS-8G11 (VHH)
chain: EVQLVESGGGLVQAGGSLRLSCAASGNFFRVNTMAWYRQAPGKQRELVADITRGDRTNYADTVNGRFTISRDNVRNTVYLQMNGLRPEDTAAYYCYAVIELGVLEPRDYWGQGTQVTVSSGGGGSGGGGSGGGGSGGGGSGGGGSGGGGSGGGGSEVQLVESGGGLVQAGGSLRLSCAASGNFFRVNTMAWYRQAPGKQRELVADITRGDRTNYADTVNGRFTISRDNVRNTVYLQMNGLRPEDTAAYYCYAVIELGVLEPRDYWGQGTQVTVSS
[2]
  IC50, CD62L shedding at 20 µM NAD: 0.52 nM
  IC50, CD62L shedding at 100 µM ATP: 0.2 nM
  potency increase vs. monovalent 8G11 (ATP): 84 fold
  potency increase vs. monovalent 8G11 (NAD): 146 fold

B3: 14D5-35GS-14D5 (VHH)
chain: EVQLVESGGGLVQAGGSLRLSCAASGSPISSYAMGWYRQAPGKPRELVARIYTGGTAWYEDSVKGRFTISRDNAQNTVYLQMNSLKSEDTAVYYCHGRVRYDYWGQGTQVTVSSGGGGSGGGGSGGGGSGGGGSGGGGSGGGGSGGGGSEVQLVESGGGLVQAGGSLRLSCAASGSPISSYAMGWYRQAPGKPRELVARIYTGGTAWYEDSVKGRFTISRDNAQNTVYLQMNSLKSEDTAVYYCHGRVRYDYWGQGTQVTVSS
[2]
  EC50, enhancement of CD62L-ectodomain shedding at 1.5 µM NAD: 0.06 nM
  EC50, enhancement of CD62L-ectodomain shedding at 33 µM ATP: 0.1 nM
  increase in potency vs. monovalent 14D5 (ATP-induced shedding): 220 fold
  increase in potency vs. monovalent 14D5 (NAD-induced shedding): 40 fold

B4: HBSAGPMP2E7 (VHH)
VHH: EVQLVESGGGLLQAGGSLRLSCAASERAFIIYGKAWFRQAPGKEREFVAGINWNGGDLHYADSVKGRFTISRDNTNNVVYLQMNSLKSEDTAVYYCAVRRGTAYETDVSSYEWGTQVTVSS
[1]
  koff: 0.00088 s⁻¹

B5: 13A7-35GS-13A7 (VHH)
chain: EVQLVESGGGLVQPGESLRLSCTASRFMLDYYDIGWFRQAPGKEREGVSCRFTNDGSTAYADSVKGRFTISRDIVKHTVYLQMNSLQPEDTAVYYCAAGPLTKRRQCVPGDFSMDFWGEGTLVTVSSGGGGSGGGGSGGGGSGGGGSGGGGSGGGGSGGGGSEVQLVESGGGLVQPGESLRLSCTASRFMLDYYDIGWFRQAPGKEREGVSCRFTNDGSTAYADSVKGRFTISRDIVKHTVYLQMNSLQPEDTAVYYCAAGPLTKRRQCVPGDFSMDFWGEGTLVTVSS
[2]
  IC50, CD62L shedding at 20 µM NAD: 0.3 nM
  IC50, CD62L shedding at 100 µM ATP: 0.1 nM
  potency increase vs. monovalent 13A7 (ATP): 9 fold
  potency increase vs. monovalent 13A7 (NAD): 23 fold

Source: patent US20160264664A1
